Results from paper doi:10.1101/2025.09.11.675549, “CCDC103-mediated assembly of the R2C complex links RUVBL1-RUVBL2 to Primary Ciliary Dyskinesia” (bioRxiv, 2025).

What was measured:
[1] = biological target: T1, RUVBL1-RUVBL2-strep complex (6XHIS-RUVBL1-RUVBL2-strep) (human, UniProt Q9Y265 1-456; Q9Y230 1-463); test: pull-down; RUVBL1-RUVBL2-strep held on Streptavidin Mag Sepharose beads, full-length CCDC103 as prey; 50mM HEPES pH 7.5, 140mM NaCl, 0.001% Tween 20; eluted with 2.5mM desthiobiotin; SDS-PAGE; settings: both partners purified
T1 construct: RUVBL1 (RuvB like 1), human, UniProt Q9Y265; RUVBL2 (RuvB like 2), human, UniProt Q9Y230; also called RUVBL1-RUVBL2 complex; hetero-hexameric ring; source: E. coli Rosetta (DE3) pLysS (pRSETA and pCDF Duet 1), purified by a previously defined protocol; not shown: Strep, C-terminal, kept; copies: 3 + 3
T1 sequence (Q9Y265 whole entry, chain 1 of 2): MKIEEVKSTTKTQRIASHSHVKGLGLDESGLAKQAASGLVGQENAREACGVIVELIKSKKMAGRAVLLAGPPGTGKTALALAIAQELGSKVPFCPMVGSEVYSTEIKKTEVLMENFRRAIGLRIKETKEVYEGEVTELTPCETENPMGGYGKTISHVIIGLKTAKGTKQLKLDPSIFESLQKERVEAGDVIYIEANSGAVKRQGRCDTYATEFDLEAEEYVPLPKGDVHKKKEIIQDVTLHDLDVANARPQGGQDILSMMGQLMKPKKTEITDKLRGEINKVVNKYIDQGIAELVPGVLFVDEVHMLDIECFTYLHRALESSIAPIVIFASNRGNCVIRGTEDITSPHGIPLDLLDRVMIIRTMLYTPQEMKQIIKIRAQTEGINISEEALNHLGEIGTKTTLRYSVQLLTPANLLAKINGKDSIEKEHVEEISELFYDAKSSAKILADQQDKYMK
T1 sequence (Q9Y230 whole entry, chain 2 of 2): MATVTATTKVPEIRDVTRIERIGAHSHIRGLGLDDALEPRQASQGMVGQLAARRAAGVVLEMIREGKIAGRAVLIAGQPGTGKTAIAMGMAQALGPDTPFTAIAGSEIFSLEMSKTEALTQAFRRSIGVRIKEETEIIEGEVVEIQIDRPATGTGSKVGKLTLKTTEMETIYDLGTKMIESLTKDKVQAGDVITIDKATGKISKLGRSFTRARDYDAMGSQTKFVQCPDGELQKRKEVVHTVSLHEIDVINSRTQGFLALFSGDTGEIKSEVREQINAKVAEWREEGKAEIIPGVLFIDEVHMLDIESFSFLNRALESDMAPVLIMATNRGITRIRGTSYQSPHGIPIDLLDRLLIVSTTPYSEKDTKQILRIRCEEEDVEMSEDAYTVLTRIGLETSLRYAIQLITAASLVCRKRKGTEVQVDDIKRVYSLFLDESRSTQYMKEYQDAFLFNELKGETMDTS

[2] = biological target: T1, RUVBL1-RUVBL2-strep complex …; test: pull-down; 10 uM GST-CCDC103 RBD and 10 uM RUVBL1-RUVBL2 on GST beads; 50mM HEPES pH 7.5, 140mM NaCl, 0.001% Tween 20; 45 min at 4 C; three washes; SDS-PAGE; settings: both partners purified

B1: full-length CCDC103 (natural protein, human, UniProt Q8IW40 1-242, looked up)
chain: MERNDIINFKALEKELQAALTADEKYKRENAAKLRAVEQRVASYEEFRGIVLASHLKPLERKDKMGGKRTVPWNCHTIQGRTFQDVATEISPEKAPLQPETSADFYRDWRRHLPSGPERYQALLQLGGPRLGCLFQTDVGFGLLGELLVALADHVGPADRAAVLGILCSLASTGRFTLNLSLLSRAERESCKGLFQKLQAMGNPRSVKEGLSWEEQGLEEQSGGLQEEERLLQELLELYQVD
notes: CCDC103 (DNAAF19), human, UniProt Q8IW40, full length; or Sf9, Flag-tagged) stood in the strep pull-down, so the tag is left open; also called CCDC103FL; DNAAF19
[1]
  binding result: binds

B2: GST-tagged RBD domain of CCDC103 (domain or fragment, human, UniProt Q8IW40 100-242, looked up)
chain: ETSADFYRDWRRHLPSGPERYQALLQLGGPRLGCLFQTDVGFGLLGELLVALADHVGPADRAAVLGILCSLASTGRFTLNLSLLSRAERESCKGLFQKLQAMGNPRSVKEGLSWEEQGLEEQSGGLQEEERLLQELLELYQVD
notes: CCDC103, human, UniProt Q8IW40, RBD without the first 99 residues (lacks N-terminal 1-99); also called GST-CCDC103 RBD; source: E. coli Rosetta (DE3) pLysS (pGEX6-P1), purified (glutathione Sepharose 4B); not shown: GST, N-terminal, kept
[2]
  binding result: binds
